Results: US8444970B2, “Compositions and methods for treating ocular diseases and conditions” (Lpath, Inc., priority 2006, dated 2013)

Legend:
[1] = test system: ovarian cancer (OVCAR3) cells; assay: S1P-induced IL-8 release from ovarian cancer cells; type: cell-based; conditions: 1 uM S1P, 22 hours
Procedure: FIG. 12. FIG. 12 has two panels, A and B, that show data from in vitro cell assays performed using several humanized monoclonal antibody variants. […] As described in Example 16, below, SKOV3 cells were treated for 48 hr. with 500 nM Taxol (Tax) in the presence or absence of 500 nM S1P with huMAbHCLC3 (309), huMAbHCLC5 (308), muMAb S1P (muMAb), or non-specific IgG1 (NS) at a concentration of 1 μg/mL. Values represent means±SEM (n=3) with triplicates run for each data point. “NT” means not treated, and “Veh” stans for vehicle only. […] In the experiments described in detail in Example 16, below, 100,000 OVCAR3 cells/well were starved overnight and 1 uM S1P was added to the culture media alone or pre-incubated with 1 ug/ml of non-specific antibody (NS), pATH201+pATH309 (LC3), pATH201+pATH308 (LC5), pATH207+pATH309 (cysLC3), pATH207+pATH308 (cysLC5), and 0.1 ug/ml (M0.1), 1 ug/ml (M1) or 10 ug/ml (M10) of anti-S1P murine antibody. After 22 hours of incubation, cell supernatants were collected and IL-8 secretion was measured by ELISA using an R&D system Quantikine human CXCL8/IL-8 kit. In the figure “NT” refers to non-treated cells.
In parallel, all the variants were tested for their effects on S1P-induced cytokine release from cancer cells. S1P is known to elicit significant release of IL-8 into the cell-conditioned media from cancer cells.

[2] = Stability after thermochallenge (TM); type: physicochemical; conditions: thermochallenge of supernatants
Procedure: iii. Stability. The humanized variants were tested for stability after challenge at high temperature. The approximate midpoints of the thermal unfolding transitions (TM) were determined for every humanized variant by subjecting the supernatants to temperatures ranging from 60 to 74° C. These temperatures were chosen based on the denaturation profile observed for the murine antibody molecule after thermochallenging between a broad range of temperatures between 50 and 80° C. The binding properties of each variant were determined before and after thermochallenge.

HUVECs = assay: HUVEC migration, Matrigel chemoinvasion assay; type: cell-based, human; conditions: 1 uM S1P, 1 ug/ml antibody, 6 hr
Procedure: FIG. 5. FIG. 5 has two panels, A and B. In panel A, S1P is shown to promote neovascularization through induction of HUVECs tube formation and migration, which is reduced by SPHINGOMAB. […] The number of cells that migrated to the Matrigel membrane were counted in five independent fields.
Experiments were performed as described by Visentin et al. (Cancer Cell 2006 March; 9(3):225-38).

[3] = test system: neovascularization of VEGF- or bFGF-containing Matrigel plugs; assay: In vivo Matrigel plug assay, bFGF- or VEGF-supplemented plugs, neovascularization; parameters: species or system mouse; conditions: 25 mg/kg i.p. every 48 hrs, 10 days
Procedure: Endogenous S1P from the blood and surrounding tissue could supply a wound with pro-angiogenic stimuli. The ability of SPHINGOMAB to reduce endogenous S1P in a wound was investigated. Optimally stimulated plugs (Matrigel supplemented with 0.5 μg/mL bFGF or […] VEGF) were implanted into mice. Mice received i.p. injections of 25 mg/kg SPHINGOMAB or saline every 48 hrs starting 1 day prior to Matrigel implantation. Each treatment group (Matrigel, Matrigel plus GF or Matrigel plus GF and administered SPHINGOMAB) consisted of a minimum of 6 mice. After 10 days, the mice were treated with heparin, injected with Isolectin B4-FITC, the plugs excised, embedded in OCT freezing medium and sectioned.

[4] = test system: murine cardiac fibroblasts; assay: S1P-stimulated cardiac fibroblast migration, scratch assay; type: cell-based, mouse; conditions: 1 ug/mL antibody, 12-24 hr
Procedure: FIG. 7. […] See Example 7, below, for experimental details. […] In these experiments, fibroblasts were serum-starved and then treated with 0, 0.1, 0.5, or 1 μM S1P+/−1 μg/mL SPHINGOMAB for 12-24 hr. […] SPHINGOMAB neutralized each of these S1P effects. SPHINGOMAB reduced perivascular fibrosis in vivo in a murine model of a permanent myocardial infarction (E).
S1P makes profound contributions to wound healing by activating fibroblast migration, proliferation and collagen production; SPHINGOMAB neutralizes these effects. Several studies using multiple types of fibroblasts confirm S1P's ability to promote wound healing: 1) S1P increased Swiss-3T3 fibroblast proliferation as measured by ^3H-thymidine incorporation using standard methods (FIG. 7A); 2) S1P promoted the migration of cardiac fibroblasts in a standard scratch wound healing assay. […] In each of these assays, SPHINGOMAB neutralized S1P's. It is anticipated that ocular fibroblasts would respond similarly to S1P and SPHINGOMAB.

B1: LT1002: murine anti-S1P monoclonal antibody, IgG1 kappa, hybridoma clone 306D326.26 (antibody, listed as Mus sp., V domains shown)
VH: QAHLQQSDAELVKPGASVKISCKVSGFIFIDHTIHWMKQRPEQGLEWIGCISPRHDITKYNEMFRGKATLTADKSSTTAYIQVNSLTFEDSAVYFCARGGFYGSTIWFDFWGQGTTLTVS
VL: ETTVTQSPASLSMAIGEKVTIRCITTTDIDDDMNWFQQKPGEPPNLLISEGNILRPGVPSRFSSSGYGTDFLFTIENMLSEDVADYYCLQSDNLPFTFGSGTKLEIK
For B1, the IL-8 release [1] was “reduced IL-8 release”, the “TM (approximate midpoint of thermal unfolding transition)” value [2] was 65 °C and the “S1P-induced HUVEC tube formation and migration” value (HUVECs) was “reduced”. For the same molecule, the “decrease in neovascularization of VEGF-containing plugs vs saline-treated animals” value [3] was 5 fold, the “decrease in neovascularization of bFGF-containing plugs vs saline-treated animals” value [3] was 8.5 fold and the “S1P-promoted cardiac fibroblast migration” value [4] was “neutralized”.
